Laboratory results as given in article PMC11194062, “The clade-specific target recognition mechanisms of plant RISCs”.

Key:
AGO6 D623A = molecular target: T1, AGO6 D623A (Arabidopsis thaliana, UniProt O48771 1-878, D623A); test: filter binding; 100 mM KOAc, 18 mM HEPES pH 7.4, 3 mM Mg(OAc)2, 5 mM DTT, 0.01% IGEPAL CA-630, 0.01 mg/ml yeast tRNA; 20 pM target; 25 C, 1 h; conditions: protein: ivt; tags: N-terminal 3xFLAG-SUMO, removed by SUMOstar elution; label: target 3' 32P-cordycepin; target 28 nt
T1 sequence: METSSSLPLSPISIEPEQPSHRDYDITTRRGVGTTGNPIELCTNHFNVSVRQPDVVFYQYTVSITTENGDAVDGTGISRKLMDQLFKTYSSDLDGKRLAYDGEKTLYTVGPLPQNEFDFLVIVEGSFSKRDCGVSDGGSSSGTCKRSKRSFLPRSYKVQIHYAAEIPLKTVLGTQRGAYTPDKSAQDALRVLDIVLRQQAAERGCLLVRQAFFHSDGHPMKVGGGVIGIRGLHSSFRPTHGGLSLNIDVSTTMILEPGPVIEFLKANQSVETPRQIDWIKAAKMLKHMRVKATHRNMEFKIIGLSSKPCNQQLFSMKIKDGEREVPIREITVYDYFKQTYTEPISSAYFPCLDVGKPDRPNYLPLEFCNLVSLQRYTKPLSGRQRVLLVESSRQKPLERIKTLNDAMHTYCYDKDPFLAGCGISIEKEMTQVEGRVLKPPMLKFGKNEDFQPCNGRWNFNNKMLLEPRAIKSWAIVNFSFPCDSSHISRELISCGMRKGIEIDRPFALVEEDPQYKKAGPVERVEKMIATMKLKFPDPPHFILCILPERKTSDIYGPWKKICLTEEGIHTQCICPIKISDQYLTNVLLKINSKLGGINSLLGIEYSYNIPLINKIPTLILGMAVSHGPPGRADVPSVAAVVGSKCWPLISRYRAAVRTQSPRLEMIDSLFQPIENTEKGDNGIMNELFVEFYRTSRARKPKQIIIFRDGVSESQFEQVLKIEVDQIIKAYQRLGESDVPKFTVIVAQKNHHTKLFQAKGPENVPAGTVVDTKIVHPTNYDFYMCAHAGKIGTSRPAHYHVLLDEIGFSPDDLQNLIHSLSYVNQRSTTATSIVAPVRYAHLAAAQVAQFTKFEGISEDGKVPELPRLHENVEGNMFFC

AGO4 D660A [1] = molecular target: T2, AGO4 D660A (Arabidopsis thaliana, UniProt Q9ZVD5 1-924, D660A); test: as above; conditions: protein: ivt, tags: N-terminal 3xFLAG-SUMO, removed by SUMOstar elution, label: target 3' 32P-cordycepin; for Kd: target 28 nt
T2 sequence: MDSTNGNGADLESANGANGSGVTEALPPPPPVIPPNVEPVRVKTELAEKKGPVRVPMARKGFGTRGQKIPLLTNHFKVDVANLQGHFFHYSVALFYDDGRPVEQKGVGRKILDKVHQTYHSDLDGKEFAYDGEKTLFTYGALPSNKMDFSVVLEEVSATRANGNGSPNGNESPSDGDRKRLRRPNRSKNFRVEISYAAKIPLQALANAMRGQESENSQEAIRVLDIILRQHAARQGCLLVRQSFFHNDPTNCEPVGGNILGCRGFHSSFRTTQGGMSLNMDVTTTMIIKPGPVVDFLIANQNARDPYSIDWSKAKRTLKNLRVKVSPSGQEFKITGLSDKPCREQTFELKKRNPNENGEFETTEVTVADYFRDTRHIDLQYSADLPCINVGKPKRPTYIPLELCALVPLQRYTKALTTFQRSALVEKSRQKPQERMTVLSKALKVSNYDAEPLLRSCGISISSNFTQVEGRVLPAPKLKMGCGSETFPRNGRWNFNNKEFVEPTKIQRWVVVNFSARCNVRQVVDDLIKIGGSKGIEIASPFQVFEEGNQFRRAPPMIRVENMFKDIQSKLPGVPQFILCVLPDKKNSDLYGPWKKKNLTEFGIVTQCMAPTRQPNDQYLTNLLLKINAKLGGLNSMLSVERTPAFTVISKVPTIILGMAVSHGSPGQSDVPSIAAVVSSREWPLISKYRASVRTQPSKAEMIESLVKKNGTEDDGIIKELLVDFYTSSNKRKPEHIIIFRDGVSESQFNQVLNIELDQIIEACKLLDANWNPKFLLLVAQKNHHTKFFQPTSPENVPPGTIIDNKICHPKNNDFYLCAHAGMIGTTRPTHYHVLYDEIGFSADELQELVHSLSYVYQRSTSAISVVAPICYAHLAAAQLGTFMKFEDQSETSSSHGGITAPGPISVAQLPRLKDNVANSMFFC

AGO9 D632A = molecular target: T3, AGO9 D632A (Arabidopsis thaliana, UniProt Q84VQ0 1-896, D632A); test: as above; conditions: protein: ivt; tags: N-terminal 3xFLAG-SUMO, removed by SUMOstar elution; label: target 3' 32P-cordycepin; target 28 nt
T3 sequence: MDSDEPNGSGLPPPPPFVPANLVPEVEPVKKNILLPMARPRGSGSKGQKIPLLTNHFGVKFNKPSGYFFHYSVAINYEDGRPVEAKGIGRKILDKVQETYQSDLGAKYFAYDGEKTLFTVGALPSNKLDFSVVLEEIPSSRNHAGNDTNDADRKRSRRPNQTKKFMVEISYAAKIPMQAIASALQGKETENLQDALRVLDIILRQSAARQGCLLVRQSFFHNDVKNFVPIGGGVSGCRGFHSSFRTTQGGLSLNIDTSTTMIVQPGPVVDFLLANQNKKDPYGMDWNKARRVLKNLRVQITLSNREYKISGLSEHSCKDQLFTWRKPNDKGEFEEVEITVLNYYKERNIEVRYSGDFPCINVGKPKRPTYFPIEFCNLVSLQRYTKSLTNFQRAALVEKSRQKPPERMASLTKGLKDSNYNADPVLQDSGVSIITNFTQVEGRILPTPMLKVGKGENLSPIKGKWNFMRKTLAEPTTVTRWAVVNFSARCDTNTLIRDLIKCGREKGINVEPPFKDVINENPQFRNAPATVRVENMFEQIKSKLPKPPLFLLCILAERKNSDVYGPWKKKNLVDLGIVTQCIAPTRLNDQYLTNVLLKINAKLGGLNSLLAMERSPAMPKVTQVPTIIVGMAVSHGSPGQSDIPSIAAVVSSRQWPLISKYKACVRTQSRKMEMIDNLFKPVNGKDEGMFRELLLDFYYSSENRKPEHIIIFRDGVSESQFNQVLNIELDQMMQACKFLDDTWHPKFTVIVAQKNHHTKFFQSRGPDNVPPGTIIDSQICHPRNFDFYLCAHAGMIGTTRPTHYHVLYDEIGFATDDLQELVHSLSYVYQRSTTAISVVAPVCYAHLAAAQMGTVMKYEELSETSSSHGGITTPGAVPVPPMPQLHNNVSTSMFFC

AGO4 D660A [2] = molecular target: T2, AGO4 D660A; test: filter binding; did not bind at all; 100 mM KOAc, 18 mM HEPES pH 7.4, 3 mM Mg(OAc)2, 5 mM DTT, 0.01% IGEPAL CA-630, 0.01 mg/ml yeast tRNA; 20 pM target; 25 C, 1 h; conditions: protein: ivt; tags: N-terminal 3xFLAG-SUMO, removed by SUMOstar elution; label: target 3' 32P-cordycepin; only g2-g8 paired
AGO4 D660A [3] = molecular target: T2, AGO4 D660A; test: filter binding; 100 mM KOAc, 18 mM HEPES pH 7.4, 3 mM Mg(OAc)2, 5 mM DTT, 0.01% IGEPAL CA-630, 0.01 mg/ml yeast tRNA; 20 pM target; 25 C, 1 h; conditions: protein: ivt; tags: N-terminal 3xFLAG-SUMO, removed by SUMOstar elution; label: target 3' 32P-cordycepin; mismatch at g20-g21

B1: 24-nt 5'A guide / t1T DNA (DNA:RNA)
RNA: AGAGGUAGAUCCUUGUAUAGUCUC
DNA: ACGAGACTATACAAGGATCTACCTCTCAA
modifications: guide 3' 2'-O-methyl
In the case of B1, the Kd (AGO6 D623A) is reported as 7.3 pM, the Kd (AGO4 D660A [1]) is reported as 0.93 pM and the Kd (AGO9 D632A) is reported as 2.12 pM.

B2: 24-nt 5'A guide / seed-only (2-8) DNA (DNA:RNA)
RNA: AGAGGUAGAUCCUUGUAUAGUCUC
DNA: ACCTCTGATATGTTCCTACTACCTCTCAA
modifications: guide 3' 2'-O-methyl
B2: no binding (AGO4 D660A [2]).

B3: 24-nt 5'A guide / seed-only (2-8) RNA (dsRNA)
RNA 1: AGAGGUAGAUCCUUGUAUAGUCUC
RNA 2: ACCUCUGAUAUGUUCCUACUACCUCUCAA
modifications: guide 3' 2'-O-methyl
B3: no binding (AGO4 D660A [2]).

B4: 24-nt 5'A guide / mm23-24 DNA (DNA:RNA)
RNA: AGAGGUAGAUCCUUGUAUAGUCUC
DNA: ACCTGACTATACAAGGATCTACCTCTCAA
modifications: guide 3' 2'-O-methyl
B4: binds (AGO4 D660A [1]; mismatch at g23-g24).

B5: 24-nt 5'A guide / mm8-9 DNA (DNA:RNA)
RNA: AGAGGUAGAUCCUUGUAUAGUCUC
DNA: ACGAGACTATACAAGGAAGTACCTCTCAA
modifications: guide 3' 2'-O-methyl
B5: binds (AGO4 D660A [1]; mismatch at g8-g9).

B6: 24-nt 5'A guide / t1U RNA (dsRNA)
RNA 1: AGAGGUAGAUCCUUGUAUAGUCUC
RNA 2: ACGAGACUAUACAAGGAUCUACCUCUCAA
modifications: guide 3' 2'-O-methyl
B6 gave a Kd (AGO6 D623A) of 50.4 pM, a Kd (AGO4 D660A [1]) of 1.71 pM and a Kd (AGO9 D632A) of 12.7 pM.

B7: 24-nt 5'A guide / mm20-21 DNA (DNA:RNA)
RNA: AGAGGUAGAUCCUUGUAUAGUCUC
DNA: ACGAGTGTATACAAGGATCTACCTCTCAA
modifications: guide 3' 2'-O-methyl
B7: binds (AGO4 D660A [1]; mismatch at g20-g21).

B8: 24-nt 5'A guide / mm6-7 DNA (DNA:RNA)
RNA: AGAGGUAGAUCCUUGUAUAGUCUC
DNA: ACGAGACTATACAAGGATCATCCTCTCAA
modifications: guide 3' 2'-O-methyl
B8: binds (AGO4 D660A [1]; mismatch at g6-g7).

B9: 24-nt 5'A guide / mm20-21 RNA (dsRNA)
RNA 1: AGAGGUAGAUCCUUGUAUAGUCUC
RNA 2: ACGAGUGUAUACAAGGAUCUACCUCUCAA
modifications: guide 3' 2'-O-methyl
In the case of B9, the binding signal (AGO4 D660A [3]) is reported as ~10 fold lower affinity than t1U.
